From PMC4405695 (2015) come the findings set out here.

In the assay the target is GST-Rab6A Q72L (UniProt P20340 1-208, Q72L). The assay is described as follows: GTPγS-loaded Rab6A.
GST-Rab6A Q72L, sequence (P20340 whole entry Q72L): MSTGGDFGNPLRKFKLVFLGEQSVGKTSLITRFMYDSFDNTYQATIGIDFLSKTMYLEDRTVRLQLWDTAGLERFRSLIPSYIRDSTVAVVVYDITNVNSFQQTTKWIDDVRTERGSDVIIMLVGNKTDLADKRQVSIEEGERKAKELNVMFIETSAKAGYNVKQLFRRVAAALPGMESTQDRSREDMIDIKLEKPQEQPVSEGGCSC

B1: KIF1C-355-His (domain or fragment)
chain: MAGASVKVAVRVRPFNARETSQDAKCVVSMQGNTTSIINPKQSKDAPKSFTFDYSYWSHTSTEDPQFASQQQVYRDIGEEMLLHAFEGYNVCIFAYGQTGAGKSYTMMGRQEPGQQGIVPQLCEDLFSRVSENQSAQLSYSVEVSYMEIYCERVRDLLNPKSRGSLRVREHPILGPYVQDLSKLAVTSYADIADLMDCGNKARTVAATNMNETSSRSHAVFTIVFTQRCHDQLTGLDSEKVSKISLVDLAGSERADSSGARGMRLKEGANINKSLTTLGKVISALADMQSKKRKSDFIPYRDSVLTWLLKENLGGNSRTAMIAALSPADINYEETLSTLRYADRTKQIRNTVSVN
A word on the Kd: it is a measure of binding affinity in units of concentration. A high value points to lower affinity. On to B1, for which binding was characterised by a dissociation constant (Kd) of 0.17 µM.
